US20050075291

Biological target: reconstituted tissue factor (Innovin, Dade) (UniProt P13726)
Sequence of UniProt P13726 (P13726 33-295): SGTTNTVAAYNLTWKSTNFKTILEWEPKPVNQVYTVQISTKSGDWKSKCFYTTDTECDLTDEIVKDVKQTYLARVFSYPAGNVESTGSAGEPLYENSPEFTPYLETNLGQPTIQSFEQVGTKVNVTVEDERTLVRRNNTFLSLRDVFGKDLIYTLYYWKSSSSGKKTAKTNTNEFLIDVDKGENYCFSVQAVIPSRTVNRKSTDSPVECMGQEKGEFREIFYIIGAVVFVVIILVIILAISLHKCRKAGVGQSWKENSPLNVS

Substance | competition assay (clotting time as a function of added FFR-VIIa, 0 to 3.5 nM) | competition with active-site modified VIIa (0-3.2 nM), clotting time
Human factor VIIa-T9Q11E33 | Human factor VIIa-T9Q11E33 exhibited a severe loss of competitive binding affinity | –
factor VII with leucine for phenylalanine at position 5 (which contained the Q11E33 mutations) | – | had much lower activity than the Q11E33 mutant
